Changes are numbered by the printed parent chain. In names and notes the source's numbering stands. Where two headings read alike, the source gives them in different places. Blank lines part the entries; values can stand above or below the binder they belong to.
Legend:
mouse FcRn = target: T1, mouse FcRn (mouse, UniProt Q61559 22-297; P01887 21-119, limits assumed); assay: SPR, mouse FcRn, pH 7.0
T1 construct: also called mFcRn
T1 sequence (looked up) 1: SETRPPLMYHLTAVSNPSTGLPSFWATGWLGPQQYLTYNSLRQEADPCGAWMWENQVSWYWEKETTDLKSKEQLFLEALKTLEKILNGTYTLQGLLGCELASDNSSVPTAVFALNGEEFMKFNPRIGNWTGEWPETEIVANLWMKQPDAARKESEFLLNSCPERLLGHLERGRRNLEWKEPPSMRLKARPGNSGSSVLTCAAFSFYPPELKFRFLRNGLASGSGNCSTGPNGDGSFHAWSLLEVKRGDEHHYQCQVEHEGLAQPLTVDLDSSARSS
T1 sequence (looked up) 2: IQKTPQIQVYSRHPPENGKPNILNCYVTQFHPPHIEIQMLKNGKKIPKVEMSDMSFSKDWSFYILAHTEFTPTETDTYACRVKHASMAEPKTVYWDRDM

human FcγRIIb [1] = target: T2, human FcγRIIb (human, UniProt P31994 43-217, limits assumed); assay: SPR (Biacore); ratio against parent IL6R-F11/IL6R-L
T2 construct: also called FcγIIB
T2 sequence: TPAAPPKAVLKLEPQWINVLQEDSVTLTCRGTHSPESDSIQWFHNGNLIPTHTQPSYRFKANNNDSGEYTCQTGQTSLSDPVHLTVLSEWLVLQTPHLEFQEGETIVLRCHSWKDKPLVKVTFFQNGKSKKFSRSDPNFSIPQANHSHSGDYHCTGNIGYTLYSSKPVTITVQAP

human FcγRIIa type R [2] = target: T3, human FcγRIIa type R (human, UniProt P12318 36-217); assay: SPR (Biacore), antibody captured, FcγR as analyte
T3 construct: also called FcγRIIaR; FcγRIIa(R)
T3 chain: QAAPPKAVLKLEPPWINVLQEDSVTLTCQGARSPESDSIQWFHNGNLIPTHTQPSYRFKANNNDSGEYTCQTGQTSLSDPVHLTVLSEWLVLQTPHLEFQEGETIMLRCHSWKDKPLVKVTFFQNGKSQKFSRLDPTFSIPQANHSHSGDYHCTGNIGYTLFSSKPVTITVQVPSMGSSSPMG

human FcγRIIIa type V [3] = target: T4, human FcγRIIIa type V (human, UniProt P08637 17-208, limits assumed); assay: SPR (Biacore), antibody captured, FcγR as analyte
T4 construct: also called FcγRIIIaV; FcγRIIIa(V)

human FcγRIa [4] = target: T5, human FcγRIa (human, UniProt P12314 16-292, limits assumed); assay: SPR (Biacore), antibody captured, FcγR as analyte
T5 construct: also called CD64

human FcγRIIb [5] = target: T2, human FcγRIIb; assay: SPR (Biacore), antibody captured, FcγR as analyte
human FcγRIIa type H [6] = target: T6, human FcγRIIa type H (human, UniProt P12318 36-217); assay: SPR (Biacore), antibody captured, FcγR as analyte
T6 construct: also called FcγRIIaH; FcγRIIa(H)
T6 sequence: T3 chain with R133H

human FcγRIIb [7] = target: T2, human FcγRIIb; assay: SPR (Biacore); ratio against IgG1
human FcγRIIb [8] = target: T2, human FcγRIIb; assay: SPR (Biacore); KD for FcγRIIaH divided by KD for FcγRIIb of the same antibody
human FcγRIIb [9] = target: T2, human FcγRIIb; assay: SPR (Biacore), antibody captured, FcγR as analyte; remark: listed apart in the source
human FcγRIIb [10] = target: T2, human FcγRIIb; assay: SPR (Biacore), antibody captured, FcγR as analyte; remark: listed apart in the source
human FcγRIIa type R [11] = target: T3, human FcγRIIa type R; assay: SPR (Biacore), binding amount relative to IL6R-BF648/IL6R-L = 100
human FcγRIIIa type V [12] = target: T4, human FcγRIIIa type V; assay: as above
human FcγRIa [13] = target: T5, human FcγRIa; assay: as above
human FcγRIIb [14] = target: T2, human FcγRIIb; assay: as above
human FcγRIIa type H [15] = target: T6, human FcγRIIa type H; assay: as above
human FcγRIIb [16] = target: T2, human FcγRIIb; assay: SPR (Biacore); ratio against IgG1; remark: listed apart in the source
human FcγRIIb [17] = target: T2, human FcγRIIb; assay: SPR (Biacore); KD for FcγRIIaR divided by KD for FcγRIIb of the same antibody
human FcγRIa [18] = target: T7, human FcγRIa (human, UniProt P12314 16-292, limits assumed); assay: SPR, antibody captured by Protein L, human FcγR as analyte, pH 7.4, 25 C
T7 construct: also called hFcgRIa; hFcgRI

human FcγRIIa(H) [19] = target: T8, human FcγRIIa(H) (human, UniProt P12318 36-217); assay: as above
T8 construct: also called hFcgRIIa(H); FcγRIIa type H
T8 sequence: T3 chain with R133H

human FcγRIIb [20] = target: T9, human FcγRIIb (human, UniProt P31994 43-217, limits assumed); assay: as above
T9 construct: also called hFcgRIIb; FcγIIB
T9 sequence: T2 sequence

human FcγRIIa(R) [21] = target: T10, human FcγRIIa(R) (human, UniProt P12318 36-217); assay: as above
T10 construct: also called hFcgRIIa(R); FcγRIIa type R
T10 chain: T3 chain

[22] = target: T11, human FcRn (soluble human FcRn complexed with β2-microglobulin) (human, UniProt P61769 21-119, limits assumed); assay: SPR, antibody captured by Protein L, human FcRn as analyte, pH 7.0, 25 C
T11 construct: also called hFcRn

human FcγRIa [23] = target: T7, human FcγRIa; assay: SPR, antibody captured by Protein L, human FcγR as analyte, pH 7.4, 25 C; remark: listed apart in the source
human FcγRIIa(H) [24] = target: T8, human FcγRIIa(H); assay: as above; remark: listed apart in the source
human FcγRIIb [25] = target: T9, human FcγRIIb; assay: as above; remark: listed apart in the source
human FcγRIIa(R) [26] = target: T10, human FcγRIIa(R); assay: as above
[27] = target: T11, human FcRn (soluble human FcRn …); assay: SPR, antibody captured by Protein L, human FcRn as analyte, pH 7.0, 25 C; remark: listed apart in the source
[28] = target: T12, human FcRn (complex with human β2-microglobulin) (human, UniProt P61769 21-119, limits assumed); assay: hFcRn KD, method not given
T12 construct: soluble human FcRn complexed with β2-microglobulin was used; also called hFcRn

human FcγRIIb [29] = target: T13, human FcγRIIb (human, UniProt P31994 43-217, limits assumed); assay: SPR, pH 7.4, antibody captured by Protein L
T13 construct: also called FcgRIIb; hFcgRIIb
T13 sequence: T2 sequence

human FcγRIIa(R) [30] = target: T14, human FcγRIIa(R) (human, UniProt P12318 36-217); assay: SPR, pH 7.4, antibody captured by Protein L
T14 construct: also called FcgRIIaR; hFcgRIIa(R)
T14 chain: T3 chain

T4 sequence (P08637 other isoform, or with tags, fused parts or gaps limits assumed): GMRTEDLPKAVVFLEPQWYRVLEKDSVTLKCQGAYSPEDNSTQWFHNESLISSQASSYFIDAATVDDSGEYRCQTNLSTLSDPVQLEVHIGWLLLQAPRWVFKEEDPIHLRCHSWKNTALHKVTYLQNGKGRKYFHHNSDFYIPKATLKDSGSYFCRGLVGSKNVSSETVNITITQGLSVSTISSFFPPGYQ

Kd (mouse FcRn): 1.6 nM
B1: antibody with mPM1H-mIgG1-mF3 heavy chain and L(WT)-CK light chain (antibody)
heavy: DVQLQESGPVLVKPSQSLSLTCTVTGYSITSDHAWSWIRQFPGNKLEWMGYISYSGITTYNPSLKSRISITRDTSKNQFFLQLNSVTTGDTSTYYCARSLARTTAMDYWGQGTSVTVSSAKTTPPSVYPLAPGSAAQTNSMVTLGCLVKGYFPEPVTVTWNSGSLSSGVHTFPAVLQSDLYTLSSSVTVPSSTWPSETVTCNVAHPASSTKVDKKIVPRDCGCKPCICTVPEVSSVFIFPPKPKDVLYITLEPKVTCVVVDISKDDPEVQFSWFVDDVEVHTAQTQPREEQFNSTFRSVSELPIMHQDWLNGKEFKCRVNSAAFPAPIEKTISKTKGRPKAPQVYTIPPPKEQMAKDKVSLTCMITDFFPEDITVEWQWNGQPAENYKNTQPIMDTDGSYFVYSKLNVQKSNWEAGNTFTCSVLHEGLKFHHTEKSLSHSPGK
light: not shown
notes: T252Y/T256E/H433K/N434F; copies: 2 + 2

KD(IIb) of parent polypeptide/KD(IIb) of altered polypeptide (human FcγRIIb [1]): 2.6
Kd (human FcγRIIa type R [2]): 1000 nM
Kd (human FcγRIIIa type V [3]): 350 nM
Kd (human FcγRIa [4]): 0.32 nM
Kd (human FcγRIIb [5]): 2600 nM
Kd (human FcγRIIa type H [6]): 670 nM
relative KD for FcγRIIb (KD for IgG1/KD for each variant) (human FcγRIIb [7]): 1
KD(IIaH)/KD(IIb) (human FcγRIIb [8]): 0.3
Kd (human FcγRIIb [9]): 5300 nM
Kd (human FcγRIIb [10]): 5300 nM
relative binding (human FcγRIIa type R [11]): 650
relative binding (human FcγRIIIa type V [12]): 3350
relative binding (human FcγRIa [13]): 140
relative binding (human FcγRIIb [14]): 62
relative binding (human FcγRIIa type H [15]): 1670
relative KD for FcγRIIb (KD for IgG1/KD for each variant) (human FcγRIIb [16]): 1
KD(IIaR)/KD(IIb) (human FcγRIIb [17]): 0.4
B2: IL6R-G1d/IL6R-L (antibody, human IgG1)
heavy: not shown
light: DIQMTQSPSSLSASVGDRVTITCRASQDISSYLNWYQQKPGKAPKLLIYYTSRLHSGVPSRFSGSGSGTDFTFTISSLQPEDIATYYCQQGNTLPYTFGQGTKVEIK
notes: Anti-human IL-6 receptor antibody with the G1d constant region (human IgG1 without the C-terminal Gly-Lys); also called IgG1; IgG1 (IL6R-G1d)

BINDING AMOUNT (RU) (human FcγRIa [18]): 392 RU
BINDING AMOUNT (RU) (human FcγRIIa(H) [19]): 116 RU
BINDING AMOUNT (RU) (human FcγRIIb [20]): 42.1 RU
BINDING AMOUNT (RU) (human FcγRIIa(R) [21]): 117 RU
Kd [22]: 22 nM
BINDING AMOUNT (RU) (human FcγRIa [23]): 392 RU
BINDING AMOUNT (RU) (human FcγRIIa(H) [24]): 116 RU
BINDING AMOUNT (RU) (human FcγRIIb [25]): 42.1 RU
BINDING AMOUNT (RU) (human FcγRIIa(R) [26]): 117 RU
Kd [27]: 22 nM
B3: VH3/L(WT)-IgG1-F698 (antibody, name in EU numbering)
heavy: QVQLQESGPGLVKPSETLSLTCAVSGHSISHDHAWSWVRQPPGEGLEWIGFISYSGITNYNPSLQGRVTISRDNSKNTLYLQMNSLRAEDTAVYYCARSLARTTAMDYWGEGTLVTVSSASTKGPSVFPLAPSSKSTSGGTAALGCLVKDYFPEPVTVSWNSGALTSGVHTFPAVLQSSGLYSLSSVVTVPSSSLGTQTYICNVNHKPSNTKVDKKVEPKSCDKTHTCPPCPAPELLGGPSVFLFPPKPKDTLYISRTPEVTCVVVDVSHEDPEVKFNWYVDGVEVHEAKTKPREEQYNSTYRVVSVLQVLHADWLNGKEYKCKVSNKALPAPIEKTISKAKGQPREPQVYTLPPSRDELTKNQVSLTCLVKGFYPSDIAVEWESNGQPENNYKTTPPVLDSDGSFFLYSKLTVDKSRWQQGNVFSCSVMHEALHYHYTQKSLSLSP
light: not shown
notes: copies: 2 + 2

Kd [28]: 11 nM
B4: antibody with heavy chain VH3-IgG1-FA6a (Heavy Chain A) (antibody)
heavy: B3 heavy with T252V, E288N, V310P, D358K, E359K, Y438V
light: not shown
notes: T250V/M252Y/T307Q/V308P/Q311A/D356K/E357K/N434Y/Y436V

binding amount (human FcγRIIb [29]): 64 RU
binding amount (human FcγRIIa(R) [30]): 9.1 RU
B5: VH3-IgG1-F652/L(WT)-CK (antibody)
heavy: B3 heavy with P240D, E288N, Q309T, A313Q
light: not shown
notes: P238D in VH3-IgG1-F11; copies: 2 + 2

Source: patent US20200199241A1 (Chugai, published 2020)
